Experimental data as given in patent US20140072613A1 (published 2014).

T1: IRAK4(h) (human, UniProt Q9NWZ3 1-460, limits assumed)
T1 sequence (looked up): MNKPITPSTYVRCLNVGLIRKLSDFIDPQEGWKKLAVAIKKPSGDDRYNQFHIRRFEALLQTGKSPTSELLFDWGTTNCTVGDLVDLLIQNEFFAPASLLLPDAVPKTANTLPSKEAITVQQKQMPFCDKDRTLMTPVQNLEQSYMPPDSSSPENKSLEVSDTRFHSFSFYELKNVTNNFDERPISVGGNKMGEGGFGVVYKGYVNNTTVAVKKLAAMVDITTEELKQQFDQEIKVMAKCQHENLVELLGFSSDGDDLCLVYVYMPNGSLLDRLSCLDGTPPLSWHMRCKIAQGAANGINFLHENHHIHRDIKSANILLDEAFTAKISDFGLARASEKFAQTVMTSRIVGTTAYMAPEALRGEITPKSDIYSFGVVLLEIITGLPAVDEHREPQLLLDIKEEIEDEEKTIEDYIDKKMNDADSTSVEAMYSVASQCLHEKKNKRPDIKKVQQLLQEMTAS

T2: PKG1β(h) (human, UniProt Q13976-2 1-686)
T2 sequence (looked up): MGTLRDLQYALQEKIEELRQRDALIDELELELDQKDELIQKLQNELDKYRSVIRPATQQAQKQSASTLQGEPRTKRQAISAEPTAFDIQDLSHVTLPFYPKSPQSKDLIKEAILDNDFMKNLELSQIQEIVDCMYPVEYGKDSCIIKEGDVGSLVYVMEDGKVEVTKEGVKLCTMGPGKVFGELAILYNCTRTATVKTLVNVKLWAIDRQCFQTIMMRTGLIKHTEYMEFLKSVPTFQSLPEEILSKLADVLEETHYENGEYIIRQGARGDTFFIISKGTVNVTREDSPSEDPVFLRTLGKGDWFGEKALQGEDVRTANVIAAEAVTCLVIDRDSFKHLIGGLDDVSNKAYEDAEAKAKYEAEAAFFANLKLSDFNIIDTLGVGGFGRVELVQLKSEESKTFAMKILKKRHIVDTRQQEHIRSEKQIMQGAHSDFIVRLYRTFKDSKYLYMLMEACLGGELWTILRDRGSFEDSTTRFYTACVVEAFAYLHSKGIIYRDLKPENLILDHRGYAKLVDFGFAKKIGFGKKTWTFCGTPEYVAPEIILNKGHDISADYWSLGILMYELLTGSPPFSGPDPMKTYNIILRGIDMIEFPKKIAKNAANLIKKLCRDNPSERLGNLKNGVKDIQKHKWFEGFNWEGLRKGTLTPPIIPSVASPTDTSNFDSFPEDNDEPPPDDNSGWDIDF

T3: SAPK3(h) (human, UniProt P53778 1-367)
T3 sequence (looked up): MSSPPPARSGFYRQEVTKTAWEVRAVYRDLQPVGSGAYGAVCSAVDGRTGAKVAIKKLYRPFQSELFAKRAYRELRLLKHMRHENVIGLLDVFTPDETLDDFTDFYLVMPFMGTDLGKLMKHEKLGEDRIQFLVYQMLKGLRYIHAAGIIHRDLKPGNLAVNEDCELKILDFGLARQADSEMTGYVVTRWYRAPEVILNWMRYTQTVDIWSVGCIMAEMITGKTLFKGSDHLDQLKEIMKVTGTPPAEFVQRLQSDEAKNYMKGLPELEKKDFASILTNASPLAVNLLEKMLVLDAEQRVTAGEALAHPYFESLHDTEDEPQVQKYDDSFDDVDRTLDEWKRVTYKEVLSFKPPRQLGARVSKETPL

T4: CaMKIV(h) (human, UniProt Q16566 1-473)
T4 sequence (looked up): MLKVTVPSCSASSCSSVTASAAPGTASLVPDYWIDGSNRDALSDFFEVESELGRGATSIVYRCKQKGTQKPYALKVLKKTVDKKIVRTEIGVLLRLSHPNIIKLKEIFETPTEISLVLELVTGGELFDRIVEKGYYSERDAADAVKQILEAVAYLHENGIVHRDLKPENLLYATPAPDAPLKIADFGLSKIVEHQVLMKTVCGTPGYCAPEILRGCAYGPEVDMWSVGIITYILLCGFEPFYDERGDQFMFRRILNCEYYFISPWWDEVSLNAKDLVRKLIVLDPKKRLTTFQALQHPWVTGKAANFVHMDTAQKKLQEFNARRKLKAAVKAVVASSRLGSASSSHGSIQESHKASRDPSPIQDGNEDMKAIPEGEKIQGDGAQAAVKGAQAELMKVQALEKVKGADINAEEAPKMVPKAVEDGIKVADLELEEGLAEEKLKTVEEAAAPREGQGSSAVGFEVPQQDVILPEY


Tests used:
Test in all cases: cell-based or functional assay
IR(h), activated = IR(h), activated (human, UniProt P06213 1005-1310, limits assumed)
IR(h), activated, sequence (P06213 1005-1310 limits assumed): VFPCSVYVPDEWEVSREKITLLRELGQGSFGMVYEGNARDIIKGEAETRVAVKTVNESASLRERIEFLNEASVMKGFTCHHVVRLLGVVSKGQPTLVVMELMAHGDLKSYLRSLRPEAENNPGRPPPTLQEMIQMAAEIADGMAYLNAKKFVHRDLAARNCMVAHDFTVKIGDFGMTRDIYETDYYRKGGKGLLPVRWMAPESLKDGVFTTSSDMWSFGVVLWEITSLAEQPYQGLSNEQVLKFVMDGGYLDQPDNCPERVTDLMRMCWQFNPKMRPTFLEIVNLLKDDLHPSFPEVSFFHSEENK

IRAK4(h) = molecular target: T1, IRAK4(h)
JNK2α2(h) = JNK2α2(h) (human, UniProt P45984 1-424)
JNK3(h) = JNK3(h) (human, UniProt P53779 1-464, limits assumed)
JNK3(h), sequence (P53779 whole entry): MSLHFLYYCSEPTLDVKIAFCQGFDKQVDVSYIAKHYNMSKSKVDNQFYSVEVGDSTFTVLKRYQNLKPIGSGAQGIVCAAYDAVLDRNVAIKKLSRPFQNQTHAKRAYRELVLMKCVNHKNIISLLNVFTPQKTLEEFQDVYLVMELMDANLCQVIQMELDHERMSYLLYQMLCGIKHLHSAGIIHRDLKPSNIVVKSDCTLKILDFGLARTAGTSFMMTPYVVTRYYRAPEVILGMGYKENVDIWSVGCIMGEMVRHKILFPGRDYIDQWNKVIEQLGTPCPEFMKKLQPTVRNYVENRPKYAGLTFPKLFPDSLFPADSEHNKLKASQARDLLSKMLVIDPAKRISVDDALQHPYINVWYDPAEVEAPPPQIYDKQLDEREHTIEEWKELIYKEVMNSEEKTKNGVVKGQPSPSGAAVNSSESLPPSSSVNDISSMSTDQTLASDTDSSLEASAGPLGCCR

MAPKAP-K3(h) = MAPKAP-K3(h) (human, UniProt Q16644 1-382, limits assumed)
MAPKAP-K3(h), sequence (Q16644 whole entry): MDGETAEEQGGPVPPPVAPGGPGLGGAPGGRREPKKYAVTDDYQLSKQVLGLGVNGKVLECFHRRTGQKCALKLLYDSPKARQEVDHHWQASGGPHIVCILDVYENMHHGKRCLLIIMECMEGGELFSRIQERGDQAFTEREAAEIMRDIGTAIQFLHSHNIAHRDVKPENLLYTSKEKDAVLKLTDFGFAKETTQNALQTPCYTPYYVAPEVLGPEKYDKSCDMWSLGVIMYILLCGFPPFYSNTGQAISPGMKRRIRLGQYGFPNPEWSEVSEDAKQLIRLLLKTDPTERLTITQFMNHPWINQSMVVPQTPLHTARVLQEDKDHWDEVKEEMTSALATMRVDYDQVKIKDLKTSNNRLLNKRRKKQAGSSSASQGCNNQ

MST3(h) = MST3(h) (human, UniProt Q9Y6E0 1-443, limits assumed)
MST3(h), sequence (Q9Y6E0 whole entry): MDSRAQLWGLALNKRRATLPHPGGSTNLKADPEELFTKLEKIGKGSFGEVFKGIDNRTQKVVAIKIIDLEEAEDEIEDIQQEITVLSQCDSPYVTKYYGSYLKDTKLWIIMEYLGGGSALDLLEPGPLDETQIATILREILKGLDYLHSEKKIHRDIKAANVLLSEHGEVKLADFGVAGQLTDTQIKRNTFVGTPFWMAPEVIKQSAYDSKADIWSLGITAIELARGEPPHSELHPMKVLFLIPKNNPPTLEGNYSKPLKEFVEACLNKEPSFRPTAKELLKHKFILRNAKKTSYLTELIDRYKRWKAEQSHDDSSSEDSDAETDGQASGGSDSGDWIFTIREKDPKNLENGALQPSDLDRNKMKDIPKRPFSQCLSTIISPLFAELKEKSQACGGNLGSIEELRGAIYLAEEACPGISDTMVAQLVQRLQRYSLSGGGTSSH

p70S6K(h) = p70S6K(h) (human, UniProt P23443 1-421)
p70S6K(h), sequence (P23443 1-421): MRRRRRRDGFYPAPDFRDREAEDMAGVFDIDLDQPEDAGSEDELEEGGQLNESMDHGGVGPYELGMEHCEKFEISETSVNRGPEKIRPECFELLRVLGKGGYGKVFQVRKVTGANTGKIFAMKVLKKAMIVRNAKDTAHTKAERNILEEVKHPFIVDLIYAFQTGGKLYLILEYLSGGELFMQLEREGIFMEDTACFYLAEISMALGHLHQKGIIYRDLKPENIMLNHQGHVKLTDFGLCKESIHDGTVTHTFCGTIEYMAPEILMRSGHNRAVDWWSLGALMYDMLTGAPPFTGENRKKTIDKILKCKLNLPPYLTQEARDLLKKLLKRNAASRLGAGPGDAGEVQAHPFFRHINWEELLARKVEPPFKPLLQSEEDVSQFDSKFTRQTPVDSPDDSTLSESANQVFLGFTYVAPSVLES

PKCβII(h) = PKCβII(h) (human, UniProt P05771-2 1-673)
PKCβII(h), sequence (P05771 other isoform, or with tags, fused parts or gaps): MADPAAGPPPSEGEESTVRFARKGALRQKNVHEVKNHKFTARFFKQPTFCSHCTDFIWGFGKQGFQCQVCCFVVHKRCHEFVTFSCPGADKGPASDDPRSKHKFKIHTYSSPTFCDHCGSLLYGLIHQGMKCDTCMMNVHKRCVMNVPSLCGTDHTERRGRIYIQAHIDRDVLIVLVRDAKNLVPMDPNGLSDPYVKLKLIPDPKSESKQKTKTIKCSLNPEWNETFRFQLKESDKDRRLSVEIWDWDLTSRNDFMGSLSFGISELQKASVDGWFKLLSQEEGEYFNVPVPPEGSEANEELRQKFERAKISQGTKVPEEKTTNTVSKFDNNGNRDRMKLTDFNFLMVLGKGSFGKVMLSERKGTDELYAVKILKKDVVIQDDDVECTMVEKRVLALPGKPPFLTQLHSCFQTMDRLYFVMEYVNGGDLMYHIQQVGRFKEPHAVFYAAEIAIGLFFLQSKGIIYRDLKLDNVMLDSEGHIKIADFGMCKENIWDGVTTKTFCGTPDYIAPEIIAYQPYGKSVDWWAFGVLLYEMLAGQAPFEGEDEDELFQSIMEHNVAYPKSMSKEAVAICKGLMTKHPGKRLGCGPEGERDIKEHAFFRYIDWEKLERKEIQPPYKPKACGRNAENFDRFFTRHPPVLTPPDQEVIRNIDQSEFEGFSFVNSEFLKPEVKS

PKG1β(h) = molecular target: T2, PKG1β(h)
SAPK3(h) = molecular target: T3, SAPK3(h)
TrkA(h) = TrkA(h) (human, UniProt P04629 441-796, limits assumed)
TrkA(h), sequence (P04629 441-796 limits assumed): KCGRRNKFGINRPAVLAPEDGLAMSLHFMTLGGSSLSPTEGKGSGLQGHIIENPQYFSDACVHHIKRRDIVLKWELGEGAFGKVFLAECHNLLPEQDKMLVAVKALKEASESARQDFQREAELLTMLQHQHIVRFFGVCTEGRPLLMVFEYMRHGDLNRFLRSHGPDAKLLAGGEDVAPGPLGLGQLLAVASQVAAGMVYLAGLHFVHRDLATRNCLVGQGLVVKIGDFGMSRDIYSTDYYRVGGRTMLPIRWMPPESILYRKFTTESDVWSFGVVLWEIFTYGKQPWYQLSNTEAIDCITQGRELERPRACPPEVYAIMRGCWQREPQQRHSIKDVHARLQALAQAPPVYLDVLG

ZIPK(h) = ZIPK(h) (human, UniProt O43293 1-454, limits assumed)
ZIPK(h), sequence (O43293 whole entry): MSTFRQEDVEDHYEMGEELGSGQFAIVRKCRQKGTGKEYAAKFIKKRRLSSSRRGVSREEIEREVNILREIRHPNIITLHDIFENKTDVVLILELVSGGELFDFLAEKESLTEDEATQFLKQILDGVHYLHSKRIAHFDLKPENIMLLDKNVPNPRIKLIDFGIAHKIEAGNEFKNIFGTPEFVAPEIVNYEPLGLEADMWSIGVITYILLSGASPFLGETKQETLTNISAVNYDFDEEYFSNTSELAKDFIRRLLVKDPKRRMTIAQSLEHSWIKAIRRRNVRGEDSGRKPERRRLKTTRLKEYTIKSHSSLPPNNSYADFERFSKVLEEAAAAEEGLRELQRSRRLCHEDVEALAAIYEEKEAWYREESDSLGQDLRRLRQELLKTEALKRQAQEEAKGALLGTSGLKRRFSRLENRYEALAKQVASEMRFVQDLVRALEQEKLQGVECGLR

CaMKIV(h) = molecular target: T4, CaMKIV(h)
CK2(h) = CK2(h) (human)
cKit(V654A)(h) = cKit(V654A)(h) (human, UniProt P10721 544-976)
cKit(V654A)(h), sequence (P10721 544-976 V654A): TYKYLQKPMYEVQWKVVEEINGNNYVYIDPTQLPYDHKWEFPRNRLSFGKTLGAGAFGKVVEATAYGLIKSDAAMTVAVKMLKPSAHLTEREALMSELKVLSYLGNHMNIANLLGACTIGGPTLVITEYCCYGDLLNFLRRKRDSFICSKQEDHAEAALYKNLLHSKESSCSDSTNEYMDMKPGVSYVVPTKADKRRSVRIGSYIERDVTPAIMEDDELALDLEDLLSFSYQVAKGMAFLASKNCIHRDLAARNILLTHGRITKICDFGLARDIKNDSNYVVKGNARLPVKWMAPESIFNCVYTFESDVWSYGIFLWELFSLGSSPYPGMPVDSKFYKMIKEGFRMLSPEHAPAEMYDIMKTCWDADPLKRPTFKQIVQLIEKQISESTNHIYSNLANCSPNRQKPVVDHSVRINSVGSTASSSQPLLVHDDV

Binder	% activity, 100 µM (IR(h), activated)	% activity, 100 µM (IRAK4(h))	% activity, 100 µM (JNK2α2(h))	% activity, 100 µM (JNK3(h))	% activity, 100 µM (MAPKAP-K3(h))	% activity, 100 µM (MST3(h))	% activity, 100 µM (p70S6K(h))	% activity, 100 µM (PKCβII(h))	% activity, 100 µM (PKG1β(h))	% activity, 100 µM (SAPK3(h))	% activity, 100 µM (TrkA(h))	% activity, 100 µM (ZIPK(h))	% activity, 100 µM (CaMKIV(h))	% activity, 100 µM (CK2(h))	% activity, 100 µM (cKit(V654A)(h))
FAKLAARLYRKALARQLGVAA [MMI-0300]	79%	59%	98%	89%	3%	45%	35%	82%	50%	84%	25%	28%	17%	90%	134%
KAFAKLAARLYRKALARQLGVAA [MMI-0400]	59%	59%	96%	70%	7%	36%	33%	75%	53%	79%	17%	13%	18%	101%	150%
